Usually EC50 stands for the concentration giving half of the maximal effect. Broadly, the Kd is the concentration at which binding is half-saturated. Usually koff stands for the first-order rate constant of dissociation. As a reminder, the kon is the second-order rate constant of association.

Numbering of substitutions follows the chain as printed.

In assay [1] the target is T1, extracellular domain (ECD) of recombinant human Sortilin with a C-terminal HIS tag (ECD-huSortilin-HIS) (human, UniProt Q99523 78-755).
T1 construct: Bought (R&D Systems); also called human sortilin-ECD; not shown: C-terminal HIS tag
T1 sequence: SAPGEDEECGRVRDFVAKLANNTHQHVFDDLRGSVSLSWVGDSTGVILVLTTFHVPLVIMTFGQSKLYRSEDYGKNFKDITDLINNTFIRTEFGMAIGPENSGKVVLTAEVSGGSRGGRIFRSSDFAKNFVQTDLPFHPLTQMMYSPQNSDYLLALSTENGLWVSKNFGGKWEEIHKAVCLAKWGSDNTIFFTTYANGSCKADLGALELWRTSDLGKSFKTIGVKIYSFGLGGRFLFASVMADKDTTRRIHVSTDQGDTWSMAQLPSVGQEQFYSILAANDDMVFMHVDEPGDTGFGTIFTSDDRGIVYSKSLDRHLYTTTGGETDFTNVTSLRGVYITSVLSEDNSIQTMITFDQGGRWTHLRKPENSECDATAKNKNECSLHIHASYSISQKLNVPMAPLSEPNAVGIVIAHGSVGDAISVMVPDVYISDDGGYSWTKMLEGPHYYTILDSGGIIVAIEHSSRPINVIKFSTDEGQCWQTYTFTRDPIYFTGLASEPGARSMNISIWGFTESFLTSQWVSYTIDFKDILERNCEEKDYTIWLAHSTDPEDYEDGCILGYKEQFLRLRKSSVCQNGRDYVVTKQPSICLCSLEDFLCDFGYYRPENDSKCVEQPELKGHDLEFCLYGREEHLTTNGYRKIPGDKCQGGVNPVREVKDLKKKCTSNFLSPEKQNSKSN
Nature of the assay: ELISA, ECD-huSortilin-HIS coated at 1 ug/mL, goat anti-human IgG-HRP, chemiluminescence. As for the experimental part:
384-well ELISA plates were coated with 1 ug/mL recombinant ECD-huSortilin-HIS (20 uL/well) and incubated overnight at 4° C. all plates were blocked with 3% BSA in PBS for 1 hour at room temperature. Plates were then washed with Tris buffered saline containing 0.1% Tween20 (TBST) three times. 20 uL of humanized anti-Sortilin mAbs diluted 3-fold from 20 ug/mL to 0.3 ng/mL in 1% BSA in TBST were added to the wells, incubated for 1 hour at room temperature and then washed as above. Goat anti-human IgG specific-HRP (Jackson Immunoresearch) diluted 1:7000 in 1% BSA in TBST was then added at 20 uL per well to react with the bound antibodies and plates were incubated for 1 hour before being washed as above. Super signal Pico chemiluminescent ELISA substrate (ThermoFisher) was used for detection. 20 uL of substrate was added to each well and Relative Light Units (RLU) were measured immediately using the SpectraMax Paradigm (Molecular Devices). Data was analyzed and EC₅₀ was calculated using graphed Prism.
Background: ELISA stands for enzyme-linked immunosorbent assay.

Assay [2] concerns the target T1, extracellular domain (ECD) of …. Kind of assay: SPR (Biacore T200), mAb captured by anti-human antibody on CM5, Sortilin 0.1-300 nM as analyte, global 1:1 fit. Here is the method:
Analysis was performed using a Biacore T200 to compare the binding affinity of chimeric and humanized antibodies to recombinant human Sortilin. Anti-Human antibody was immobilized on sensor chip CM5 (GE Healthcare Life Sciences) via amine coupling, and humanized antibodies (ligand) were captured to a level to ensure a maximum binding of analyte of 50 RU (approximately 100 RU of ligand binding). Various concentrations of Sortilin (ranging from 0.1 nM to 300 nM) were passed over the captured ligand at 50 μL/min in running buffer (HBS+0.05% P-20, 1 mg/mL BSA) for 300s association time and 1200s dissociation time. Regeneration of the chip surface was accomplished by 2 short injections of 3M MgCl. Data was blank subtracted to both a sensor not containing ligand and 0 nM analyte concentration. Analysis was performed using a global 1:1 fit with Biacore Insight Evaluation software (v2.0) with bulk refractive index set to zero RU.
Background: Surface plasmon resonance follows binding to a sensor surface in real time, without labels.

B1: humanized 11M14 hu11M14VHv1b/hu11M14VLv2b (antibody, V domains shown)
VH: EVQLVESGGGLVQPGGSLRLSCAASGFTFNIYGMSWVRQAPGKGLEWVATISSGGIYTYYPDILKGRFTISRDNAKNSLYLQMNSLRAEDTAVYYCARHPGGAMDYWGQGTLVTVSS
VL: DIQMTQSPSSLSASVGDRVTITCRVSENIYSNLAWYQQKPGKSPKLLVYAATNLADGVPSRFSGSGSGTDYTLTISSLQPEDFATYYCQHFWGTPPWTFGQGTKLEIK
notes: Human IgG; also called 11M14H1bL2b
As for B1, the EC50 in assay [1] stood at 0.08 µg/mL. Besides, in assay [2], the Kd was found to be 5.37 nM, the koff was 0.00193 s⁻¹ and the kon is 360000 M⁻¹ s⁻¹.

B2: humanized 11M14 hu11M14VHv2b/hu11M14VLv2b (antibody, V domains shown)
VH: B1 VH with L86G
VL: B1 VL
notes: Human IgG; also called 11M14H2bL2b
As to B2, the EC50 in assay [1] amounted to 0.07 µg/mL. Besides, in assay [2], the Kd was found to be 2.86 nM, the koff amounted to 0.0012 s⁻¹ and the kon turned out to be 421000 M⁻¹ s⁻¹.

B3: humanized 11M14 hu11M14VHv3b/hu11M14VLv3b (antibody, V domains shown)
VH: B1 VH with L81G
VL: B1 VL with L54G
notes: Human IgG; also called 11M14H3bL3b
Take B3: the EC50 in assay [1] was 0.23 µg/mL. Also, in assay [2], the Kd is 9.17 nM, the koff is 0.00343 s⁻¹ and the kon came out at 374000 M⁻¹ s⁻¹.

B4: humanized 11M14 hu11M14VHv1b/hu11M14VLv3b (antibody, V domains shown)
VH: B1 VH
VL: B1 VL with L54G
notes: Human IgG; also called 11M14H1bL3b; hu11M14H1bL3b
As for B4, the EC50 in assay [1] was 0.07 µg/mL. Also, in assay [2], the Kd is 5.3 nM, the koff came out at 0.002 s⁻¹ and the kon was found to be 377000 M⁻¹ s⁻¹.

B5: humanized 11M14 hu11M14VHv2b/hu11M14VLv4b (antibody, V domains shown)
VH: B1 VH with L86G
VL: B1 VL with L54I
notes: Human IgG; also called 11M14H2bL4b
As for B5, in assay [1], the EC50 came to 0.1 µg/mL. In assay [2], the Kd was determined as 2.84 nM, the koff is 0.00117 s⁻¹ and the kon came to 413000 M⁻¹ s⁻¹.

B6: humanized 11M14 hu11M14VHv2b/hu11M14VLv3b (antibody, V domains shown)
VH: B1 VH with L86G
VL: B1 VL with L54G
notes: Human IgG; also called 11M14H2bL3b
For the molecule B6, the EC50 in assay [1] worked out at 0.13 µg/mL. In assay [2], the Kd stood at 2.99 nM, the koff came out at 0.00119 s⁻¹ and the kon stood at 398000 M⁻¹ s⁻¹.

B7: humanized 11M14 hu11M14VHv3b/hu11M14VLv4b (antibody, V domains shown)
VH: B1 VH with L81G
VL: B1 VL with L54I
notes: Human IgG; also called 11M14H3bL4b
As for B7, the EC50 in assay [1] stood at 0.1 µg/mL. In assay [2], the Kd came out at 7.91 nM, the koff amounted to 0.00344 s⁻¹ and the kon was 435000 M⁻¹ s⁻¹.

B8: humanized 11M14 hu11M14VHv3b/hu11M14VLv2b (antibody, V domains shown)
VH: B1 VH with L81G
VL: B1 VL
notes: Human IgG; also called 11M14H3bL2b
B8: in assay [1], the EC50 is 0.19 µg/mL. In addition, in assay [2], the equilibrium dissociation constant (Kd) turned out to be 7.07 nM, the koff amounted to 0.00225 s⁻¹ and the kon worked out at 319000 M⁻¹ s⁻¹.

B9: humanized 11M14 hu11M14VHv1b/hu11M14VLv4b (antibody, V domains shown)
VH: B1 VH
VL: B1 VL with L54I
notes: Human IgG; also called 11M14H1bL4b
For the molecule B9, the EC50 in assay [1] was 0.08 µg/mL. For the same molecule, in assay [2], the Kd stood at 5.32 nM, the koff came out at 0.0019 s⁻¹ and the kon is 357000 M⁻¹ s⁻¹.

B10: humanized 5E20 hu5E20VHv3/hu5E20VLv3 (antibody, V domains shown)
VH: EVQLVESGGGLVQPGGSLRLSCAASGFTFSTYGMSWVRQAPGKRLEWVAIISSGGSYTYYSDTVKGRFTISRDNSKNSLYLQMNSLRAEDTAVYYCSRSSSHWYFDVWGQGTLVTVSS
VL: DIQMTQSPSSVSASVGDRVTITCHASQGISSNIGWLQQKPGKAFKGLIYHGTNLKDGVPSRFSGSGSGADFTLTISSLQPEDFATYFCVQYAQFPYTFGQGTKVEKR
notes: Human IgG; also called 5E20H3L3
With B10, in assay [1], the EC50 amounted to 0.09 µg/mL. Also, in assay [2], the Kd worked out at 15.3 nM, the koff was 0.0028 s⁻¹ and the kon is 183000 M⁻¹ s⁻¹.

B11: humanized 5E20 hu5E20VHv1/hu5E20VLv3 (antibody, V domains shown)
VH: B10 VH with V5L, R44G, S78T
VL: B10 VL
notes: Human IgG; also called 5E20H1L3
As for B11, in assay [1], the EC50 stood at 0.09 µg/mL.

B12: humanized 5E20 hu5E20VHv3/hu5E20VLv4 (antibody, V domains shown)
VH: B10 VH
VL: B10 VL with T85D
notes: Human IgG; also called 5E20H3L4
Regarding B12, the EC50 in assay [1] came out at 0.07 µg/mL. In assay [2], the Kd amounted to 14.8 nM, the koff amounted to 0.00257 s⁻¹ and the kon turned out to be 174000 M⁻¹ s⁻¹.

B13: humanized 5E20 hu5E20VHv1/hu5E20VLv1 (antibody, V domains shown)
VH: B10 VH with V5L, R44G, S78T
VL: B10 VL with V11L, Q100G, K106I
notes: Human IgG (detected or captured with anti-human IgG; huIgG1 control); also called 5E20H1L1
With B13, the EC50 in assay [1] came to 0.12 µg/mL.

B14: humanized 5E20 hu5E20VHv2/hu5E20VLv3 (antibody, V domains shown)
VH: B10 VH with R44G
VL: B10 VL
notes: Human IgG; also called 5E20H2L3
Regarding B14, the EC50 in assay [1] was 0.1 µg/mL.

B15: humanized 5E20 hu5E20VHv2/hu5E20VLv2 (antibody, V domains shown)
VH: B10 VH with R44G
VL: B10 VL with K106I
notes: Human IgG; also called 5E20H2L2
Take B15: the EC50 in assay [1] was 0.08 µg/mL.

B16: humanized 5E20 hu5E20VHv2/hu5E20VLv1 (antibody, V domains shown)
VH: B10 VH with R44G
VL: B10 VL with V11L, Q100G, K106I
notes: Human IgG; also called 5E20H2L1
With B16, in assay [1], the EC50 turned out to be 0.12 µg/mL.

B17: humanized 5E20 hu5E20VHv5/hu5E20VLv3 (antibody, V domains shown)
VH: B10 VH with G42D, R87K
VL: B10 VL
notes: Human IgG; also called 5E20H5L3
With B17, the EC50 in assay [1] was 0.07 µg/mL. In assay [2], the Kd came out at 6.01 nM, the koff amounted to 0.0014 s⁻¹ and the kon was 233000 M⁻¹ s⁻¹.

B18: humanized 5E20 hu5E20VHv4/hu5E20VLv4 (antibody, V domains shown)
VH: B10 VH with G42D
VL: B10 VL with T85D
notes: Human IgG; also called 5E20H4L4
As to B18, the EC50 in assay [1] was 0.04 µg/mL. Moreover, in assay [2], the Kd turned out to be 5.57 nM, the koff was 0.00117 s⁻¹ and the kon was determined as 209000 M⁻¹ s⁻¹.

B19: humanized 5E20 hu5E20VHv1/hu5E20VLv2 (antibody, V domains shown)
VH: B10 VH with V5L, R44G, S78T
VL: B10 VL with K106I
notes: Human IgG; also called 5E20H1L2
On to B19, for which the EC50 in assay [1] stood at 0.12 µg/mL.

B20: humanized 5E20 hu5E20VHv4/hu5E20VLv3 (antibody, V domains shown)
VH: B10 VH with G42D
VL: B10 VL
notes: Human IgG; also called 5E20H4L3
As to B20, in assay [1], the EC50 was 0.07 µg/mL. Further, in assay [2], the Kd came to 6.36 nM, the koff was 0.00145 s⁻¹ and the kon was determined as 228000 M⁻¹ s⁻¹.

B21: chimeric 11M14 (antibody, human IgG1, kappa, L234A L235A, V domains shown)
VH: EVQLVESGGDLVKPGGSLKLSCAASGFTFNIYGMSWVRQTPDKRLEWVATISSGGIYTYYPDILKGRFTISRDNAKNTLYLQMSSLKSEDTAMYYCARHPGGAMDYWGQGTSVTVSS
VL: DIQMTQSPASLSVSVGETVTITCRVSENIYSNLAWYQQKQGKSPHLLVYAATNLADGVPSRFSGSGSGTQYSLKINSLQSEDFGSYYCQHFWGTPPWTFGGGTKLEIKR
Regarding B21, the EC50 in assay [1] came to 0.06 µg/mL. For the same molecule, the Kd in assay [2] stood at 2.52 nM.

The record behind these values is patent US20230235048A1 (PROTHENA BIOSCIENCES, published 2023).
